# Assay results from patent US20050187155A1 (NESTEC S A, published 2005).
# T1: MMP-7
# T1 sequence (P09237 95-267, species assumed, looked up): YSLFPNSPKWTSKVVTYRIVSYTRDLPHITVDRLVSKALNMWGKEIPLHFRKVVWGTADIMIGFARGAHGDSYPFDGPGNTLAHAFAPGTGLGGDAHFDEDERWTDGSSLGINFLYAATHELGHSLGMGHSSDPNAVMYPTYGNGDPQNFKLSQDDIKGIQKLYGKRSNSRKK
# Molecular target: angiotensin-converting enzyme (ACE)
# Experiment: cell-based or functional assay
row,IC50 for the inhibition of ACE using the substrate FAPGG [µM],Binder
1,250,ENLLRFFVAPFPEVFG [ENLLRFFVAPFPEVFG (SEQ ID NO:22)]
2,175,VENLHLPLPLL [VENLHLPLPLL (SEQ ID NO:18)]
3,250,ENLHLPLPLL [ENLHLPLPLL (SEQ ID NO:19)]
4,650,FVAPFPEVFG [FVAPFPEVFG (SEQ ID NO:23)]
5,55,NENLLRFFVAPFPEVFG [NENLLRFFVAPFPEVFG (SEQ ID NO:21)]
6,280,LNENLLRFFVAPFPEVFG [LNENLLRFFVAPFPEVFG (SEQ ID NO:20)]
7,15,NLHLPLPLL [NLHLPLPLL (SEQ ID NO:12)]

# Molecular target: MMP-9
# Experiment: cell-based or functional assay
row,IC50 for the inhibition of MMPs using a fluorescein conjugated gelatin [µM],Binder
1,150,ENLLRFFVAPFPEVFG [ENLLRFFVAPFPEVFG (SEQ ID NO:22)]
2,300,VENLHLPLPLL [VENLHLPLPLL (SEQ ID NO:18)]
3,300,ENLHLPLPLL [ENLHLPLPLL (SEQ ID NO:19)]
4,400,FVAPFPEVFG [FVAPFPEVFG (SEQ ID NO:23)]
5,50,NENLLRFFVAPFPEVFG [NENLLRFFVAPFPEVFG (SEQ ID NO:21)]
6,150,LNENLLRFFVAPFPEVFG [LNENLLRFFVAPFPEVFG (SEQ ID NO:20)]
7,600,NLHLPLPLL [NLHLPLPLL (SEQ ID NO:12)]

# Molecular target: T1, MMP-7
# Experiment: cell-based or functional assay
row,IC50 for the inhibition of MMPs using a fluorescein conjugated gelatin [µM],Binder
1,1000,ENLLRFFVAPFPEVFG [ENLLRFFVAPFPEVFG (SEQ ID NO:22)]
2,250,VENLHLPLPLL [VENLHLPLPLL (SEQ ID NO:18)]
3,275,ENLHLPLPLL [ENLHLPLPLL (SEQ ID NO:19)]
4,300,FVAPFPEVFG [FVAPFPEVFG (SEQ ID NO:23)]
5,850,NENLLRFFVAPFPEVFG [NENLLRFFVAPFPEVFG (SEQ ID NO:21)]
6,300,LNENLLRFFVAPFPEVFG [LNENLLRFFVAPFPEVFG (SEQ ID NO:20)]
7,1200,NLHLPLPLL [NLHLPLPLL (SEQ ID NO:12)]

# Molecular target: MMP-2
# Experiment: cell-based or functional assay
row,IC50 for the inhibition of MMPs using a fluorescein conjugated gelatin [µM],Binder
1,425,ENLLRFFVAPFPEVFG [ENLLRFFVAPFPEVFG (SEQ ID NO:22)]
2,150,VENLHLPLPLL [VENLHLPLPLL (SEQ ID NO:18)]
3,200,ENLHLPLPLL [ENLHLPLPLL (SEQ ID NO:19)]
4,500,FVAPFPEVFG [FVAPFPEVFG (SEQ ID NO:23)]
5,275,NENLLRFFVAPFPEVFG [NENLLRFFVAPFPEVFG (SEQ ID NO:21)]
6,250,LNENLLRFFVAPFPEVFG [LNENLLRFFVAPFPEVFG (SEQ ID NO:20)]
7,450,NLHLPLPLL [NLHLPLPLL (SEQ ID NO:12)]
